Data on 17 sequences can be found in the supplement of paper PMC9170038.

For this series, the system named is MS2 coat protein. Nature of the series: apparent KD of MS2 coat protein; higher = weaker reporter binding. The following applies: Eterna round: R107. A digest of the protocol:
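Values are apparent KD, taken as the median for each design of fits to normalised binding curves from individual clusters. The designed RNA switches were transcribed on-chip from Illumina sequencing clusters and exposed to SNAP-549-labelled MS2 coat protein at twofold increasing amounts from 0.7 or 1.5 nM to 3 µM. Titration used 100 mM Tris-HCl pH 7.5, 80 mM KCl and 4 mM MgCl2, without or with constant ligand.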

[1] abbreviates: input ligand: theophylline 20 uM.
[2] abbreviates: input ligand: tryptophan 2.4 mM.
The mark [3] stands for this setting: input ligand: theophylline 2 mM.

In the case of “AUCUACGUGGGUGAUACCAGCUGGUUAGUACACAUGAGGAUCACCCAUGUGCAGGCAGGCAGCCCUUGGCAGCACCGCAGUGGCU [theeternabot_sameState_MS2_Theo_B_36]”, the “apparent KD of MS2 coat protein” value (input ligand: arginine 13.2 mM) came to 42.8 nM, the “apparent KD of MS2 coat protein” value under setting [1] was 221 nM and the “apparent KD of MS2 coat protein” value under setting [2] is 60.9 nM.
Regarding “AUCUAUAGAGCGGCCGCCACUGAAUACAUGAGGAUCACCCAUGUAAUGUUAAGGUGGUCCUAGCUCAGGACCGGGCUCUAUAGAU [Tryp B Ex t4]”, the “apparent KD of MS2 coat protein” value turned out to be 30 nM (input ligand: arginine 13.2 mM), 60.6 nM under setting [1] and 53.3 nM under setting [3].
With “AUCUGUAUGUUUUCGUGUUUUAUUACAGAUACCAGACUAUACGUUGUCCCUUGGCAGCUGGAUGACAUGAGGAUCACCCAUGUUG [#27 Exclusion-TheophyllineA]”, the “apparent KD of MS2 coat protein” value is 24 nM (input ligand: arginine 13.2 mM), 41.2 nM under setting [1] and 31.8 nM under setting [2].
Turning to “AUGCAGAACACGGCCGCCACUCAUUGUAGACAUGAGGAUCACCCAUGUAAUAGGGAUAUUUUAUUGAGGACCGGGUGUAAUGCAA [JR_SSTryptoB_Sub013]”, the “apparent KD of MS2 coat protein” value reads like this: (input ligand: arginine 13.2 mM) 34.5 nM; under setting [1], 77.6 nM; under setting [3], 59.5 nM.
With “AUGCAUAGCGGAAGGAGCGCAAUAGAAUGACAUGAGGAUCACCCAUGUGUGUGAUGUGGAUUGCAGGUAGGUCGCCGAGUGGUAU [Exclusion - Arginine B (Freestyle 3)]”, the “apparent KD of MS2 coat protein” value runs as follows: (input ligand: arginine 13.2 mM) 35.9 nM; (input ligand: none) 45.1 nM; under setting [1], 57.5 nM; under setting [3], 42.7 nM; under setting [2], 42.8 nM.
Regarding “AUGGAGACCUCGGCCGCCACUCUCCAUGAGGAUCUCCCAUGUAACAUGAGGAUCACCCAUGUACUGAGGACCGGGAGGUCCUUGA [Same State Tryptophan B GF 17]”, the “apparent KD of MS2 coat protein” value runs as follows: (input ligand: arginine 13.2 mM) 7.9 nM; under setting [1], 10.8 nM; under setting [3], 10.1 nM.
For the sequence “AUUAAAGUUUAUAAGGAAAUUGAAACAGAAGGAGCGUGAGUAAUCACAGGUAGGUCGCUGGUAGUACAUGAGGAUCACCCAUGUU [JR_Nu_SSArginiA_Sub020]”, the “apparent KD of MS2 coat protein” value came to 22.2 nM (input ligand: arginine 13.2 mM); 20.1 nM (input ligand: none); 30.6 nM under setting [1]; 24.2 nM under setting [3]; 21.3 nM under setting [2].
With “AUUCAUAAUUGGGUAAAUGGAUAGAGUGAUACCAGUCAUAUACAUGACCCUUGGCAGCACAAGGACAUGAGGAUCACCCAUGUCA [Same State Theophylline A GF22]”, the “apparent KD of MS2 coat protein” value (input ligand: arginine 13.2 mM) came out at 21.1 nM, the “apparent KD of MS2 coat protein” value under setting [1] came to 26.7 nM and the “apparent KD of MS2 coat protein” value under setting [2] amounted to 28.9 nM.
Take “AUUCAUGGAAACAUGACAUAGGGAUCUAGCCGAGGACCGGUACGGCCGCCACUCGCUUGGAGGCACAUGAGGAUCACCCAUGUUA [SS Tryp A #6]”: the “apparent KD of MS2 coat protein” value is 42.3 nM (input ligand: arginine 13.2 mM), 140 nM under setting [1] and 140 nM under setting [3].
“CAAUAAGUAACUGAUACCAGUGUACUGACAUGAGGAUCACCCAUGUUGGGUUUUGUUGUACACCCUUGGCAGCAGAAUCUUAUUG [AstrosExyTheB#12]”: the “apparent KD of MS2 coat protein” value stood at 44.2 nM (input ligand: arginine 13.2 mM), 67.2 nM under setting [1] and 55.4 nM under setting [2].
Regarding “CAAUAUAUAUGAAGGAGCGUCGAAAAUGGGUAAACAUGAGGAUCACCCAUGUAAAGGGAACGACAGGUAGGUCGCAUAUAUAUUG [AstromonsSSArgB#8]”, the “apparent KD of MS2 coat protein” value (input ligand: arginine 13.2 mM) stood at 117 nM; the “apparent KD of MS2 coat protein” value (input ligand: none) was found to be 168 nM; the “apparent KD of MS2 coat protein” value under setting [1] was 305 nM; the “apparent KD of MS2 coat protein” value under setting [3] came to 218 nM; the “apparent KD of MS2 coat protein” value under setting [2] was 192 nM.
Consider “CACAGUGCGAAUUUGAAAUCGCACGAUCCUCGAGGACCGGUACGGCCGCCACUCGCGCGGGUCGUACAUGAGGAUCACCCAUGUC [Beertele]”, for which the “apparent KD of MS2 coat protein” value (input ligand: arginine 13.2 mM) is 44 nM, the “apparent KD of MS2 coat protein” value under setting [1] was found to be 600 nM and the “apparent KD of MS2 coat protein” value under setting [3] is 907 nM.
In the case of “CACGCGGUGUCGGCCGCCACUGACGCCCGUGGGUCUCCUGACAUGAGGAUCACCCAUGUACAGCGCAGGACCGGGACACCAACAA [Are]”, the “apparent KD of MS2 coat protein” value turned out to be 22 nM (input ligand: arginine 13.2 mM); 49.4 nM (input ligand: none); 59 nM under setting [1]; 64.2 nM under setting [3]; 29.3 nM under setting [2].
“CAGAGCUACCGGGAUACCAGAAUUGGUAUUCCUAUAUUUCUUACAUGAGGAUCACCCAUGUUCCCUUGGCAGCUUGGUAGCUCUG [ETHB #9]”: the “apparent KD of MS2 coat protein” value stood at 45.1 nM (input ligand: arginine 13.2 mM), 87.6 nM under setting [1] and 68.8 nM under setting [2].
For the sequence “CAUAAUUUAUCCUAUAAAACUAUUAGUGAUACCAGCACCUCAUGAUGCCCUUGGCAGCACUUACAUGAGGAUCACCCAUGUUUUA [JR_NU_SSTheophyA_Sub029]”, the “apparent KD of MS2 coat protein” value is, setting by setting: (input ligand: arginine 13.2 mM) 99.6 nM; under setting [1], 223 nM; under setting [2], 158 nM.
In the case of “CAUAUAUAUUGAAGGAGCGACAUGAGGAUCACCCAUGUCUACCACGUCGAAAGACGCUCAUGUCAGGUAGGUCGCAAUAUAUAUG [Astros-Eli-mod5]”, the “apparent KD of MS2 coat protein” value came out at 41.5 nM (input ligand: arginine 13.2 mM); 124 nM (input ligand: none); 86.2 nM under setting [1]; 144 nM under setting [3]; 106 nM under setting [2].
In the case of “CCAUGCAGGUCGGCCGCCACUACACACAUGAGGAUCACCCAUGUAGUUACUGGGUGAAGUGGCAGUAGGACCGGGACCUGCAUAC [Brourdmod12]”, the “apparent KD of MS2 coat protein” value came to 78.2 nM (input ligand: arginine 13.2 mM); 341 nM (input ligand: none); 459 nM under setting [1]; 540 nM under setting [3]; 395 nM under setting [2].
